This is an account of results in patent publication US12618845B2, “Methods and compositions for protein sequencing” (Quantum-Si Incorporated, priority 2018, dated 2026).

Read-outs that look alike come from different tables or passages of the source.

The experiment relates to peptide substrates. The format is biochemical.
[1] abbreviates: substrate AAPFQQ (SEQ ID NO: 118), 1 mM Peptide, 1 μM enzyme, 10 mM Mg(OAc)2, 50 mM MOPS pH 8, 60 mM KOAc, RT/0.5 hr.
[2] abbreviates: substrate CCPFQQ (SEQ ID NO: 144), 1 mM Peptide, 1 μM enzyme, 10 mM Mg(OAc)2, 50 mM MOPS pH 8, 60 mM KOAc, RT/0.5 hr.
Setting [3] is: substrate DDPFQQ (SEQ ID NO: 126), 1 mM Peptide, 1 μM enzyme, 10 mM Mg(OAc)2, 50 mM MOPS pH 8, 60 mM KOAc, RT/0.5 hr.
Where [4] appears, read: substrate EEPFQQ (SEQ ID NO: 128), 1 mM Peptide, 1 uM enzyme, 10 mM Mg(OAc)2, 50 mM MOPS pH 8, 60 mM KOAc, RT/0.5 hr.
[5] abbreviates: substrate FFPFQQ (SEQ ID NO: 124), 1 mM Peptide, 1 μM enzyme, 10 mM Mg(OAc)2, 50 mM MOPS pH 8, 60 mM KOAc, RT/0.5 hr.
The mark [6] stands for this setting: substrate GGPFQQ (SEQ ID NO: 152), 1 mM Peptide, 1 uM enzyme, 10 mM Mg(OAc)2, 50 mM MOPS pH 8, 60 mM KOAc, RT/0.5 hr.
Where [7] appears, read: substrate HHPFQQ (SEQ ID NO: 154), 1 mM Peptide, 1 uM enzyme, 10 mM Mg(OAc)2, 50 mM MOPS pH 8, 60 mM KOAc, RT/0.5 hr.
Where [8] appears, read: substrate IIPFQQ (SEQ ID NO: 136), 1 mM Peptide, 1 μM enzyme, 10 mM Mg(OAc)2, 50 mM MOPS pH 8, 60 mM KOAc, RT/0.5 hr.
The mark [9] stands for this setting: substrate KKPFQQ (SEQ ID NO: 120), 1 mM Peptide, 1 uM enzyme, 10 mM Mg(OAc)2, 50 mM MOPS pH 8, 60 mM KOAc, RT/0.5 hr.
Setting [10] is: substrate LLPFQQ (SEQ ID NO: 138), 1 mM Peptide, 1 μM enzyme, 10 mM Mg(OAc)2, 50 mM MOPS pH 8, 60 mM KOAc, RT/0.5 hr.
[11] abbreviates: substrate MMPFQQ (SEQ ID NO: 148), 1 mM Peptide, 1 uM enzyme, 10 mM Mg(OAc)2, 50 mM MOPS pH 8, 60 mM KOAc, RT/0.5 hr.
The mark [12] stands for this setting: substrate NNPFQQ (SEQ ID NO: 130), 1 mM Peptide, 1 μM enzyme, 10 mM Mg(OAc)2, 50 mM MOPS pH 8, 60 mM KOAc, RT/0.5 hr.
[13] abbreviates: substrate PPPFQQ (SEQ ID NO: 150), 1 mM Peptide, 1 uM enzyme, 10 mM Mg(OAc)2, 50 mM MOPS pH 8, 60 mM KOAc, RT/0.5 hr.
Where [14] appears, read: substrate QQPFQQ (SEQ ID NO: 132), 1 mM Peptide, 1 μM enzyme, 10 mM Mg(OAc)2, 50 mM MOPS pH 8, 60 mM KOAc, RT/0.5 hr.
[15] abbreviates: substrate RRPFQQ (SEQ ID NO: 116), 1 mM Peptide, 1 uM enzyme, 10 mM Mg(OAc)2, 50 mM MOPS pH 8, 60 mM KOAc, RT/0.5 hr.
Where [16] appears, read: substrate SSPFQQ (SEQ ID NO: 140), 1 mM Peptide, 1 μM enzyme, 10 mM Mg(OAc)2, 50 mM MOPS pH 8, 60 mM KOAc, RT/0.5 hr.
[17] abbreviates: substrate TTPFQQ (SEQ ID NO: 142), 1 mM Peptide, 1 μM enzyme, 10 mM Mg(OAc)2, 50 mM MOPS pH 8, 60 mM KOAc, RT/0.5 hr.
[18] abbreviates: substrate VVPFQQ (SEQ ID NO: 134), 1 mM Peptide, 1 μM enzyme, 10 mM Mg(OAc)2, 50 mM MOPS pH 8, 60 mM KOAc, RT/0.5 hr.
The mark [19] stands for this setting: substrate WWPFQQ (SEQ ID NO: 146), 1 mM Peptide, 1 μM enzyme, 10 mM Mg(OAc)2, 50 mM MOPS pH 8, 60 mM KOAc, RT/0.5 hr.
Setting [20] is: substrate YYPFQQ (SEQ ID NO: 122), 1 mM Peptide, 1 μM enzyme, 10 mM Mg(OAc)2, 50 mM MOPS pH 8, 60 mM KOAc, RT/0.5 hr.

B1: PfuTET: Pfu aminopeptidase I (protein)
chain: MVDWELMKKIIESPGVSGYEHLGIRDLVVDILKDVADEVKIDKLGNVIAHFKGSAPKVMVAAHMDKIGLMVNHIDKDGYLRVVPIGGVLPETLIAQKIRFFTEKGERYGVVGVLPPHLRREAKDQGGKIDWDSIIVDVGASSREEAEEMGFRIGTIGEFAPNFTRLSEHRFATPYLDDRICLYAMIEAARQLGEHEADIYIVASVQEEIGLRGARVASFAIDPEVGIAMDVTFAKQPNDKGKIVPELGKGPVMDVGPNINPKLRQFADEVAKKYEIPLQVEPSPRPTGTDANVMQINREGVATAVLSIPIRYMHSQVELADARDVDNTIKLAKALLEELKPMDFTPLE
For B1, the “HPLC Assay Conv” value under setting [1] was determined as 100%; the “HPLC Assay Conv” value under setting [2] was found to be 72%; the “HPLC Assay Conv” value under setting [3] is listed as 86%; the “HPLC Assay Conv” value under setting [4] worked out at 93%; the “HPLC Assay Conv” value under setting [5] turned out to be 65%; the “HPLC Assay Conv” value under setting [6] amounted to 0%. The “HPLC Assay Conv” value amounted to 19% under setting [7]; 0% under setting [8]; 100% under setting [9]; 99% under setting [10]; 100% under setting [11]; 81% under setting [12]. The “HPLC Assay Conv” value is reported as 0% under setting [13]; 100% under setting [14]; 100% under setting [15]; 90% under setting [16]; 100% under setting [17]; 0% under setting [18]. Moreover, the “HPLC Assay Conv” value by setting is: under setting [19], 37%; under setting [20], 100%.

B2: hTET: Pyrococcus horikoshii TET aminopeptidase, SEQ ID NO: 59 (protein, listed as Pyrococcus horikoshii)
chain: MEVRNMVDYELLKKVVEAPGVSGYEFLGIRDVVIEEIKDYVDEVKVDKLGNVIAHKKGEGPKVMIAAHMDQIGLMVTHIEKNGFLRVAPIGGVDPKTLIAQRFKVWIDKGKFIYGVGASVPPHIQKPEDRKKAPDWDQIFIDIGAESKEEAEDMGVKIGTVITWDGRLERLGKHRFVSIAFDDRIAVYTILEVAKQLKDAKADVYFVATVQEEVGLRGARTSAFGIEPDYGFAIDVTIAADIPGTPEHKQVTHLGKGTAIKIMDRSVICHPTIVRWLEELAKKHEIPYQLEILLGGGTDAGAIHLTKAGVPTGALSVPARYIHSNTEVVDERDVDATVELMTKALENIHELKI
Turning to B2, the “HPLC Assay Conv” value worked out at 100% under setting [1]; 32% under setting [2]; 4% under setting [3]; 0% under setting [4]; 100% under setting [5]; 33% under setting [6]. The “HPLC Assay Conv” value reads like this: under setting [7], 26%; under setting [8], 100%; under setting [9], 0%; under setting [10], 100%; under setting [11], 0%; under setting [12], 69%. Besides, the “HPLC Assay Conv” value under setting [13] is on record as 0%; the “HPLC Assay Conv” value under setting [14] is 63%; the “HPLC Assay Conv” value under setting [15] stood at 0%; the “HPLC Assay Conv” value under setting [16] was found to be 100%; the “HPLC Assay Conv” value under setting [17] was determined as 100%; the “HPLC Assay Conv” value under setting [18] turned out to be 100%. Further, the “HPLC Assay Conv” value runs as follows: under setting [19], 4%; under setting [20], 99%; (substrate […]1 (SEQ ID NO: 156), 1 mM Peptide, 1.0 μM enzyme, 10 mM Mg(OAc)2, 50 mM MOPS pH 8, 60 mM KOAc, RT/0.5 hr) 100%; (substrate […], 200 μM Peptide, 2 μM, 37° C. (rest of the wrapped entry lies below the rows shown)) 55%; (substrate […]{LYSN3}NH2 (SEQ ID NO: 107), 200 μM Peptide, 2 μM enzyme, 10 mM MgCl2, 50 mM MOPS pH 8.0, 37° C./1 hr) 55%; (substrate […]{LYSN3}NH2 (SEQ ID NO: 109), 200 μM Peptide, 4 μM enzyme, 10 mM MgCl2, 50 mM MOPS pH 8.0, 37° C./1 hr) 100%.

B3: Rat APN (protein)
chain: KPWNQYRLPKTLIPDSYQVTLRPYLTPNEQGLYIFKGSSTVRFTCNETTNVIIIHSKKLNYTNKGNHRVALRALGDTPAPNIDTTELVERTEYLVVHLQGSLVKGHQYEMDSEFQGELADDLAGFYRSEYMEGGNKKVVATTQMQAADARKSFPCFDEPAMKASFNITLIHPNNLTALSNMLPKDSRTLQEDPSWNVTEFHPTPKMSTYLLAYIVSEFKYVEAVSPNRVQIRIWARPSAIDEGHGDYALQVTGPILNFFAQHYNTAYPLEKSDQIALPDFNAGAMENWGLVTYRESALVFDPQSSSISNKERVVTVIAHELAHQWFGNLVTVDWWNDLWLNEGFASYVEFLGADYAEPTWNLKDLIVLNDVYRVMAVDALASSHPLSSPANEVNTPAQISELFDSITYSKGASVLRMLSSFLTEDLFKKGLSSYLHTFQYSNTIYLDLWEHLQQAVDSQTAIKLPASVSTIMDRWILQMGFPVITVNTSTGEIYQEHFLLDPTSKPTRPSDFNYLWIVPIPYLKNGKEDHYWLETEKNQSAEFQTSSNEWLLLNINVTGYYQVNYDENNWRKIQNQLQTDLSVIPVINRAQIIHDSFNLASAGKLSITLPLSNTLFLASETEYMPWEAALSSLNYFKLMFDRSEVYGPMKRYLKKQVTPLFAYFKIKTNNWLDRPPTLMEQYNEINAISTACSSGLEECRDLVVGLYSQWMNNSDNNPIHPNLRSTVYCNAIAFGGEEEWNFAWEQFRKATLVNEADKLRSALACSNEVWILNRYLSYTLNPDYIRKQDATSTIVSIANNVVGQTLVWDFVRSNWKKLFEDYGGGSFSFANLIQGVTRRFSSEFELQQLEQFKEDNSATGFGSGTRALEQALEKTKANIKWVKENKDVVLKWFTENS
Consider B3, for which the “HPLC Assay Conv” value by setting is: (substrate AAPAAP{LYSN3}NH2 (SEQ ID NO: 98), 1 mM peptide, 50 nM enzyme, 2.5 mM ZnCl2, 25 mM Tris pH 8.0, 30° C./1 hr) 100%; (substrate KKMKKMLys-Triazole-PEG4 Biotin (SEQ ID NO: 89), 1 mM peptide, 150 nM enzyme, 2.5 mM ZnCl2 25 mM Tris pH 8.0, 30° C./1 hr) over 90%; (substrate KKMKKM{LYSN3}NH2 (SEQ ID NO: 71), 1 mM peptide, 50 nM enzyme, 2.5 mM ZnCl2, 25 mM Tris pH 8.0, 30° C./1 hr) 50%; (substrate KKPKKP{LYSN3}NH2 (SEQ ID NO: 100), 1 mM peptide, 50 nM enzyme, 2.5 mM ZnCl2, 25 mM Tris pH 8.0, 30° C./1 hr) 85%; (substrate QP5-Atto649N ([…]{LYSN3}NH2) (SEQ ID NO: 106), 37 μM Peptide, 100 nM Enzyme, 2.5 mM ZnCl2, 25 mM Tris pH 8.0, 37° C./0.5 hr) over 95%; (substrate RRPRRP{LYSN3}NH2 (SEQ ID NO: 96), 1 mM peptide, 50 nM enzyme, 2.5 mM ZnCl2, 25 mM Tris pH 8.0, 30° C./1 hr) 55%.
